These results are taken from US6034062A, “Bone morphogenetic protein (BMP)-9 compositions and their uses” (Genetics Institute, Inc., priority 1997, dated 2000).

Like-named read-outs stand apart in the source and are kept apart here.

For orientation: Kd means a measure of binding affinity in units of concentration.

The subject of assay [1] is BMP-9 receptors expressed on HepG2 cells. As to the kind of experiment: 125I-BMP-9 binding to HepG2 cells. As for the experimental part: BMP-9 responsiveness in parenchymal liver cells is tested by screening four liver cell lines for their ability to bind iodinated, CHO-derived BMP-9. […] Specific binding of BMP-9 to HepG2 cells is carried out by incubating HepG2 cells grown to confluence in Dulbecco's Modified Eagle's Medium (DME) containing 10% heat-inactivated fetal calf serum (FCS) on gelatinized 6 well plates with 2 ng/ml ^125 I-BMP-9 and increasing concentrations of unlabelled BMP-9 in binding buffer (136.9 mM NaCl, 5.37 mM KCl, 1.26 mM CaCl2, 0.64 mM MgSO4, 0.34 mM Na2 HPO4, 0.44 mM KH2 PO4, 0.49 mM MgCl2, 25 mM HEPES and 0.5% BSA, pH 7.4) for 20 hours at 4° C. to achieve binding equilibrium. This incubation follows a one hour preincubation at 37° C. in binding buffer alone. For crosslinking experiments, the cells were incubated with 500 μM disuccinimidyl suberate for 20 minutes at […] following binding. Cell extracts were analyzed on SDS-PAGE. […] To test the binding specificity of the receptors for BMP-9, HepG2 cells were incubated with ^125 I-BMP-9 and a 250-fold excess of different unlabeled ligands.

Another assay has as its system NMuli. The assay is described as follows: 125I-BMP-9 binding to NMuli liver cell line. The following applies: iodinated CHO-derived BMP-9. As to the method:
(§1) BMP-9 responsiveness in parenchymal liver cells is tested by screening four liver cell lines for their ability to bind iodinated, CHO-derived BMP-9. […] Specific binding of BMP-9 to HepG2 cells is carried out by incubating HepG2 cells grown to confluence in Dulbecco's Modified Eagle's Medium (DME) containing 10% heat-inactivated fetal calf serum (FCS) on gelatinized 6 well plates with 2 ng/ml ^125 I-BMP-9 and increasing concentrations of unlabelled BMP-9 in binding buffer (136.9 mM NaCl, 5.37 mM KCl, 1.26 mM CaCl2, 0.64 mM MgSO4, 0.34 mM Na2 HPO4, 0.44 mM KH2 PO4, 0.49 mM MgCl2, 25 mM HEPES and 0.5% BSA, pH 7.4) for 20 hours at 4° C. to achieve binding equilibrium. This incubation follows a one hour preincubation at 37° C. in binding buffer alone. For crosslinking experiments, the cells were incubated with 500 μM disuccinimidyl suberate for 20 minutes at […] following binding. Cell extracts were analyzed on SDS-PAGE. […] The curvilinear nature of the Scatchard plot indicates negative cooperativity among BMP-9 receptors or that HepG2 cells express at least two populations of BMP-9 receptors with different affinities. Crosslinking analysis on HepG2 cells with ^125 I-BMP-9 yields two binding proteins of apparent molecular weights of 54 and 80 kD. […]

For the next assay, the system named is Chang. As to the kind of experiment: 125I-BMP-9 binding to Chang liver cell line. The following applies: iodinated CHO-derived BMP-9. As for the experimental part: as §1
In the next assay the test system is liver plasma membranes. The assay is described as follows: [125I]rhBMP-9 binding to liver plasma membranes. As to conditions: adult rat liver plasma membranes, displaceable by 100-fold excess of unlabeled rhBMP-9. As for the experimental part:
(§2) To determine potential target tissues for BMP-9, plasma membrane preparations from adult rat organs are screened for specific [^125 I]rhBMP-9 binding. Plasma membranes are prepared by the methods of Neville, J. Biophys Biochem Cytol 8:412-422 (1960) and Ray, Biochim Biophys Acta 196:1-9 (1970) with the following modifications: Fresh tissues from adult male Long-Evans rats are homogenized with 10 strokes of a teflon homogenizer. Plasma membranes are collected from discontinuous sucrose gradients at 37%/41% sucrose interface and the 41%/45% sucrose interface. Homogenization buffer and sucrose solutions are supplemented with 0.7 μg/ml leupeptin, 2 μg/ml aprotinin and 240 μg/ml pefabloc. Protein levels in plasma membrane preparations are determined by the bicinchoninic acid assay (Pierce, Rockford, Ill.) using immunoglobulin G as a standard.
(§3) BMP-9 binding is carried out by suspending plasma membranes at 30 μg/100μl in binding buffer (136.9 mM NaCl, 5.37 mM KCl, 1.26 mM CaCl2, 0.64 mM MgSO4, 0.34 mM Na2 HPO4, 0.44 mM KH2 PO4, 0.49 mM MgCl2, 25 mM HEPES and 0.5% BSA, pH 7.4) containing o.5 ng [^125 I]rhBMP-9. Binding is allowed to equilibrate by incubation for 16 h at 4° C. […]
(§4) To verify that this specific binding is of high affinity, a more complete displacement profile is determined with lung and kidney plasma membranes.

For the next assay, the system named is lung plasma membranes. The assay is described as follows: [125I]rhBMP-9 binding to lung plasma membranes. More on the design: species or system rat. As for the experimental part:
as §2, §3, §4

In assay [2] the test system is A-549 lung epithelial cells. The assay is described as follows: Cell proliferation, [3H]thymidine incorporation, A-549. The assay is classed as cell-based. As to conditions: subconfluent, 24 h. As to the method:
(§5) Several cell lines are tested for BMP-9 responsiveness in vitro. Cell proliferation, as indicated by [^3 H]thymidine incorporation, is determined in cell lines derived from kidney and lung. Cell proliferation is determined by measuring [^3 H]thymidine incorporation in subconfluent cells treated for 24 h with or without growth factors. NRK-52E (ATCC CRL 1571), WI-38 (ATCC CCL-75), CCD-11Lu (ATCC CCL-202), CCD-16Lu (ATCC CCL-204), and A-549 (ATCC CCL-185) cell lines are placed at 10^4 cells/well in 96 well plates and assayed for [^3 H]thymidine incorporation as described above. IMCD-3 cells (ATCC #CRL-2123) are cultured in a collagen matrix as described by Barros et al., PNAS USA 92:4412-4416 (1995), and treated with growth factors for 6 days to allow tubule formation.
(Incorporation of labelled thymidine or its analogues reports DNA synthesis.)

Assay [3] relates to NRK-52E kidney epithelial cells. As to the kind of experiment: Cell proliferation, [3H]thymidine incorporation, NRK-52E. It is filed as cell-based. As to conditions: subconfluent, 24 h. As to the method:
as §5

B1: BMP-9: recombinant human bone morphogenetic protein-9, mature amino acids #1-#110 of SEQ ID NO:9, expressed in CHO cells (protein)
chain: TRECSRSCPRTAPQRQVRAVTRRTRMAHVAAGSTLARRKRSAGAGSHCQKTSLRVNFEDIGWDSWIIAPKEYEAYECKGGCFFPLADDVTPTKHAIVQTLVHLKFPTKVG
modifications: 125I-iodinated as tracer; unlabelled BMP-9 used as the displacing ligand
Consider B1, for which the Kd in assay [1] (HepG2 cells, Scatchard analysis, 20 hours at 4° C., read-out: Kd of high affinity receptors) was 300 pM; in assay [1] (HepG2 cells, estimated, read-out: Kd of the high affinity binding sites), ~270 pM; on lung plasma membranes (rat lung plasma membranes) it was 600 pM. The “Kd (estimated binding affinity) expressed” value in assay [1] (HepG2 cells, printed as Kd =0.3 nM=8 ng/ml) was 8 ng/mL. The “specific binding of 125I-BMP-9” value in assay [1] (HepG2 liver cell line, iodinated CHO-derived BMP-9) is “highest degree of binding”; in the assay with NMuli, “to some extent”; in the assay with Chang it was “to some extent”. The “specific [125I]rhBMP-9 binding” value in the assay with liver plasma membranes is “evident”; with lung plasma membranes (adult rat lung plasma membranes, displaceable by 100-fold excess of unlabeled rhBMP-9), “evident”. Moreover, the “cell proliferation ([3H]thymidine incorporation)” value in assay [2] and in assay [3] was “inhibited proliferation” each time.
